Data from a protein production outcome set (Wang et al. 2014).

Assay: label from the status in PepcDB records

Row | Sequence | protein production
1 | MPAYDLIIRNGTICDGTGAPRFTGDVAVKNGLIVAVGAVRGDAAEEVDATGRIVAPGWVDVHTHYDGQATWDPEMAPSSWHGVTTVIMGNCGVGFAPAAPDRHDWLIGLMEGVEDIPGTALAEGMAWDWESFPEYLDSLEKMPRAVDVGTHVPHGAVRAYVLGEREKPGAVPTAEDIRKMSEIVEEGVRAGALGFSTSRTVIHKSVDGEVVPGTTATAEELIEIGRAMGRVGHGVFEMASDMKREWDEFGWMGALSRETGLPVTYAALQSIAKEMPLEEQIAEMRHQNAQGANIVAQIALRGNGVIMAWRGTIHPFRFRPSYAAIAELPWEEQLVQLKDPAFRAKVLAEANVYPDSDIVNLFRMIAEGWHNQFIMDEDFDYEPQPEASILLRAKTAGVSPDAFAYDKLMEDEGNGFIYLPILNYADGNLDFLEALQAADDTVNSLSDGGAHCGTICDAASPTFMLQHWVRDRRRGSRISLEHAIKRQCHDTARLYGLDDRGVIAPGYLADINVIDFDRVRLLKPWLAFDLPAGGKRLLQKAEGYDYTIKGGKVTFRNGEWTGATPGNLIRGPQRADLMEAAE | failed
2 | MPDATLSNTSLGRLAWLWLTVLIVAVDQVSKYYFENALSLYQQIIVIPDYFSWTLAYNTGAAFSFLADGAGWQRWLFALIAVVVSAVLVVWLKRLGRDDTWLAIALALVLGGALGNLYDRVVLGHVIDFILVHWQNRWYFPAFNVADSAITVGAIMLALDMFKSKKTGETVND | failed
3 | MPDIDLHALSRTVLWATFALTFLFGAILQRTHFCTMGAVSDAVNIGDWSRLRMWALAIGVAMIGTGILGWAGWIDPAKTIYAAGRLQWLSALVGGLMFGFGMVLGSGCGSKTLVRIGGGNLKSVVVFVFLGLSAYMTLKGVFGVVRVATVDAVAIALPTTQDLPSVLGHALSADVRMLRLALALAIGGALAVWALAGRDFRTPDNLLGGIGVGLVIVAMWYVSGHLGYVAEDPDTLQEAFVATNSGRMEALSFVAPVSYTLEWLMFFSDTSKVLTVGIVSVLGVIAGSAAVALASGTFRWEGFANAEDTGNHIVGGILMGAGGVTALGCTIGQGLSGVSTLAIGSFVALAGILAGAVLAFRYQMWRLERGG | failed
4 | MPDSVEDTSTISLRICLEGHANALALNKDNNQIALAGRSLLKVYSINSNGFTESCNMRGKNQNLSYSANDVAWSTLDSNLLATAATNGVVSVWDLSKFGRQKQLLVYNEHERTAHTVTFHSSEPNILISGSQDGTIKCFDIRSDKSINTYFCNSESVRDVKFSPHTQNIFSAVSENGTVQLWDMRKWDKCMVQFTAHYGPVYTCDWHPTRNWLATGSRDKQIKVWNMDGRPGLEHTIHTIAVVGRVKWRPERTYHIASCALVVDYSVHVWDIRRPYIPFASFNEHTNVTTGIAWQGSDSHCLLSISKDSTIYKHAFKDATRPALKANAQGASLGRFGDISFANKIKEYEPKTSGASNTKSSSFIRRKTNVAGSIQFHLDHSKMYKFMVNDTFSGYPLSESVSRPTQEHESFIGCARELVISGKKLSELCEHNAEVSKKYGKHNATTLWNFIKLFYGSNHFEPPFEHRSSFSNQKNPMNSRRATQVASDWPQQRTELGQDLNGNTPETAHEIDVANVDDDTLGSSGVEHPPTSSVILSETQIISEITFDNFELLRNGFIYVGPTECPKALAFPALHHDVQAARPQLDLKASDHEKSPVS | failed
5 | MPDYVYGDSMVLKLTLEYSSVLLVSLICCIIAFTSTYTVMPRLINKLKEANVVGNDIHKISKPIVAEMGGIGILFGFTIGMFIGMYCFPELQYELMVTLLVILLVGIVGMVDDLVRLSSREKLFLLFLAGLPIIWVAPPKVGILYMIMMPVAVSIASNLTNMLAGLNGIESGLGSIAMTALTASCIIMGKYDVSIITMAMLGALLAFLMYNRYPSRVFPGDVGTLIIGACIASVAFIGRVKIIALIVLLPNIIDGILKFYSAGVVERHKHRPTEIAEDGKLIAPPEGFNSLIRWILRRPMTEKKVVMIVWSIGMFFGFLGVLLAFILPLDPF | failed
6 | MPEDLNWAIGGEAGDGIDSTGKIFAQALSRAGRHVFTSKDFASRIRGGYTAYKVRTSVDRVESVVDRLDILIALTERTIHENEDELHEDSVIIYDGERSTMQDVEVPGDATALEVPLKRLAEDAGGAIMLNVVALGAACEVTGFPIENLDESLEKRFGDKGEAIVENNKEAARKGQHYVQEEYGEFDYDMETTDEDYVLLNGDEAIGMGAIAAGCRFYSGYPITPATDVMEYMTGRVDQFGGKVVQAEDELSAINMALGAARAGARAMTATSGPGIDLMTETFGLVATSETPLVICDVMRSGPSTGMPTKQEQGDLNMTLYGGHGEIPRFVVAPTTVSECFWKTVEAFNLAEKYQTPVFLVSDLAMAVTEQTFSPETFDMDEVEIDRGKVVDENEIDAWLDEKGRFQAHFAAADGVSPRAFPGTTDGAHMTTGLEHDELGRRTEDTDVRIEQVDKRQRKVETAREQEDFDYREFGDSDADTLVISWGSNEGALREGLTLLEEDGYDVRFLSVPYIFPRPDLSEEIEAAEDVIVVECNATGQFADVIEHDVLERVQRINKYNGVRFKADELATEIKQTLDTPPEATQ | failed
7 | MPEEALIVVDMQRDFMPGGALPVPEGDKIIPKVNEYIRKFKEKGALIVATRDWHPENHISFRERGGPWPRHCVQNTPGAEFVVDLPEDAVIISKATEPDKEAYSGFEGTDLAKILRGNGVKRVYICGVATEYCVRATALDALKHGFEVYLLRDAVKGIKPEDEERALEEMKSRGIKIVQF | not failed
8 | MPELPEVETTRRRLRPLVLGQTLRQVVHRDPARYRNTALAEGRRILEVDRRGKFLLFALEGGVELVAHLGMTGGFRLEPTPHTRAALVLEGRTLYFHDPRRFGRLFGVRRGDYREIPLLLRLGPEPLSEAFAFPGFFRGLKESARPLKALLLDQRLAAGVGNIYADEALFRARLSPFRPARSLTEEEARRLYRALREVLAEAVELGGSTLSDQSYRQPDGLPGGFQTRHAVYGREGLPCPACGRPVERRVVAGRGTHFCPTCQGEGP | not failed
9 | MPEQDVPRVRLFGAHELKISDIFDEKKDIYYVPIFQGKDDVNKLHQSAYTGKNTKCAILDSGVLTDHPYLKDRMDAIEDFTGHGFQDREGHGTAVALNLAMTAPDASILIGKVYENDDVPLSEYINRIARGVNWAIDSGARIINLSVGMEKRKEDISNYPGCSEAVKNVCKAITQAIENGISVLVAAGANFPADCHESIIVVGLPGNPVYPKDVHPTVYSPFSPILVPTFLFEGYAHLKMGMYEQALALFKQAADLHPEDHQLWKYQALCRYGLKKYNDAILSFDKALAIKQSDVKTWYLKGITLLALTQNDKAIECFDEVLKLVNNAGLTGMKLTEFSNSISDDWYNMGVYYEQASRYDEAANCYDKAIRIDPLNAKAWNNRGVILAIEEKYEDSIKYFEVATELKPSMVDAWFNKGLALSRIGKYEESIEFFDKAIAIDPASNKALKERIRVSGKLKSKEE | failed
10 | MPERINKMKIIAFYLPQFHNIPENDEWWGDGFTEWVNVKKAKPIFDGHNQPRVPLNHNYYNLLDDDVKIWQADLAKKYGVYGFCYYHYWFDGKLLLEKPMEQMLENKKVDIPFCICWANEPWTRAWVGETKTLIPQKYGSKKEWKEHFDYLLPFFKDPRYILDEGKPLVVIYRPEIIDVLNDMLDYWNELAKNAGFEGLKFAYQSAGMDELPKNKRNDSRFDYDIEFQPAYAFTKLNKNTLPVLRKIKKVVSDFVEKRTGLTLRFIGSGKVAALNRVDYDKAWETILNTTPESIINVPGAFVDWDNTPRHGERGRVYIGKTPEKFEKYLSEQIRRAKNVYHKDMIFMYAWNEWAEGGYLEPDQTSGYAYLEAIKKALDENGENPWQH | failed
11 | MPESRVKSEPSPAPYWRRNVRLIVLLLACWAGLTFVPAYFARQLAFDFIGWPFSFWMAAYGAPLAYLILIVIYALVMNRFDARSRTRRDD | failed
12 | MPETYIITPNLNGVSFLEVYFRSLLRQTYEDFRVVFIDNGSSDGSVDFIKSNFSEYLGDRIILIENHENLGFAASNNQGIRIALDDPQCRYVVCLNNDTEVLPDFIENLILAAGDDERVGSVQARMIWGQNRKLIDSAGLEYSLNGLGFNRGAYEPVENFNERARILGCCAGACLYRREALEDVEVDAEYFDEDFFAYYEDFDLALRLRSAGWDSLYAPDATVYHYKGGTNPFISDFTVYHNWRNYTWTFIKNMPADLLLMCLPLFVLTEIIQVLLNIKRGKLIILRAKYDAYRGLGRVIRKRRALKRVPESEIKEYLTMRWSVKVPSPQED | failed
13 | MPFINIKLVPENGGPTNEQKQQLIEGVSDLMVKVLNKNKASIVVIIDEVDSNNYGLGGESVHHLRQKN | failed
14 | MPFNTLAPQFSRLGPGLVLSIAATGLAFAIHTVFPAVPAMTLAVALGLLSANIPGTAVLTAGRARPGLDFAGKHLMRAGIVLLGLKVSIGDVIGLGWLSLLLIAGVVLLSFAGTYGLARLLRLPGEAALLIATGFSICGASAIGAMAAVRRIKHQDTVLPVALVTLCGTLAIGVLPLLMHPLNLNPEQFGAWTGASVHDVGQVVATAQTAGTSALAIAVVVKLTRVVLLAPVAAAAGVHQRILHVRERSNGKGDAAKSIDGRFPPIVPLFVVGFLSMVAVRSLGWVPPVGLEIAAAVQDILLATALFGLGSAVRVRTLIHTGGRAILVALGSWLLIASLGLGAAWIMIR | failed
15 | MPFRTIARLNPAKPKAGEEFRLQVVAQHPNEPGTRRDAEGKLIPAKYINLVEVYFEGEKVAEARPGPSTSANPLYAFKFKAEKAGTFTIKLKDTDGDTGEASVKLELV | not failed
16 | MPFVLRCLLCCTLFVLGGCAAHEAPLAPVNPMGLSGNVAPEAEKNYALARVLWGNSEVCSDPVQAVAYLDRAIAVQPDYAAAYQRRGLAYSEMGRYEEAFEDLTKALRLKPGVEAYTYRGLVSMRMGNLIGARKDLDHALELDSGYHRAWNFRAAVRLQQDDTAGACADFAKGCSKGDCTGMESARESGICK | failed
17 | MPGSIPLIGERFPEMEVTTDHGVIKLPDHYVSQGKWFVLFSHPADFTPVCTTEFVSFARRYEDFQRLGVDLIGLSVDSVFSHIKWKEWIERHIGVRIPFPIIADPQGTVARRLGLLHAESATHTVRGVFIVDARGVIRTMLYYPMELGRLVDEILRIVKALKLGDSLKRAVPADWPNNEIIGEGLIVPPPTTEDQARARMESGQYRCLDWWFCWDTPASRDDVEEARRYLRRAAEKPAKLLYEEARTHLH | not failed
18 | MPGSPRGLCTRSRKSTMSTHGTIGVLGAGEVGQAVADKAVRHGHEVLIGNSRGPRTLEALVGRLGPKARAVTAEEAVQPELVFLSVPFFAVPELTGLTTWAGKIVVDTTNQFAAANPWRGRYDVGDLTGSEWVARHLPGARLVKALNTLFATFIAADPRHAEGRQVAFYAGDDADAKTAVAGLLDEFGFAALDLGGLRDGGRLMQLDGALSAKHLLLQDVG | failed
19 | MPGVLVTGGTGKTGKVLVQVLRNAGVQARVASRNPAAADPDPIRFDWNDPTTYGPALDGMDRVFLLPPVESVDPLPLVEPFLRRAQRAGVQRLVMLGSAIVLPNAPSAVEMAAQVQAQPGGVVLRASGFMQNFLRPHPLAEHIHRLGEIRTAAGDGRLGWVDARDIAASAAALLADLEVDARSDYLITGPHGMSYPQAAQIITAQTGRRVRVERITEEEQAAAHRASGMPPAFADALAAVERGIKEGREDQVSTAVLELTGRPPRTFAEFVSDHAYEWTQ | failed
20 | MPGWHALTKPARFRYPEGLHGREIRVEFIDNIRYKKIKNAVGRAVADFGLIRDGDRIAVAVSGGKDSYTLLHILEGLRRRAPVKYELVAVTIDSGYPGFRSDVIASYLREQGFAHHLETTDHYDIIREKRRPGSSYCSICARLKRGVLYTLAQKLGCNKLALGHHLDDFVETLLLNQFFVGTLKAMAPRMLADNGETTVIRPLVYVEEREIIPFARENRFPVVCCSCPVCGTADLQRRRMKKLLTELEKENPAVKRSLLRALGNVQPRYLLDLELQRLCDVP | failed
21 | MPHLRFRAVEAHIVESLVPTLLNELSSLLSTARNAFTFELINTQYFAEGGVYPMVEVLWFGREQQTQDQIAQVITDQIRQLLGADSHLAVVFIPLQRTAYYLDGQHF | not failed
22 | MPHLVIEATANLRLETSPGELLEQANAALFASGQFGEADIKSRFVTLEAYRQGTAAVERAYLHACLSILDGRDAATRQALGESLCEVLAGAVAGGGEEGVQVSVEVREMERASYAKRVVARQR | not failed
